Article PMC2793008

Molecular target: integrin alpha2beta1 (human (endogenous in cord blood derived megakaryocytes)) (UniProt P17301)
Sequence of UniProt P17301 (P17301 30-1181, chain 1 of 2): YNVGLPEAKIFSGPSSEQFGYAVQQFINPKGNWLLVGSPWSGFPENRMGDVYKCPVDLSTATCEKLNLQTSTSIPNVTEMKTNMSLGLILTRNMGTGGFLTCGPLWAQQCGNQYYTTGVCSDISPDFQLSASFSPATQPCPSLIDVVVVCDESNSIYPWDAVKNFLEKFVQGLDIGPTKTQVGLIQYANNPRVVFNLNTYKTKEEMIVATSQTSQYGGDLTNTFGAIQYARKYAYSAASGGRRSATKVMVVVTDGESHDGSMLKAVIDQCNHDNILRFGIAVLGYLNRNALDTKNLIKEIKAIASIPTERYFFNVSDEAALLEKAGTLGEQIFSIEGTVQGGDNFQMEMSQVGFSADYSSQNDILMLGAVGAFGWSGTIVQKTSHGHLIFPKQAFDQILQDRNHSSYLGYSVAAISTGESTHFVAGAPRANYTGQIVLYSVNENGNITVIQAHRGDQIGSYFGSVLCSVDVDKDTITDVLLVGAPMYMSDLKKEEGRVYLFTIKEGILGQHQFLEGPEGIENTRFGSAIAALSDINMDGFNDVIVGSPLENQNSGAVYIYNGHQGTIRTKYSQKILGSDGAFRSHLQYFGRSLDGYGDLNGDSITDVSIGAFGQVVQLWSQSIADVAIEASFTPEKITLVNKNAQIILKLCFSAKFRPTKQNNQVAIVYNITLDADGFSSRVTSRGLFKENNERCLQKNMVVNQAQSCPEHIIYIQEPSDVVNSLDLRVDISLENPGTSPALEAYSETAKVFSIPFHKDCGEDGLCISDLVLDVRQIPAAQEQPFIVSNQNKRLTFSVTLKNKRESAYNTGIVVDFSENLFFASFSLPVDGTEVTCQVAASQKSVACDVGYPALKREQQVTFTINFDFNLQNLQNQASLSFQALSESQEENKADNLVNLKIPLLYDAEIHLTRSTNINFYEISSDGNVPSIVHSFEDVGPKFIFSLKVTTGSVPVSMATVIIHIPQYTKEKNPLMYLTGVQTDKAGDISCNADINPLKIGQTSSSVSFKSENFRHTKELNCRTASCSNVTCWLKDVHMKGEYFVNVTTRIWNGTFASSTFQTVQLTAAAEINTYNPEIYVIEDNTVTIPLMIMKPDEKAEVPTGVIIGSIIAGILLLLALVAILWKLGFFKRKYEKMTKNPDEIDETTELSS
Sequence of UniProt P17301 (P05556 21-798, chain 2 of 2, further chain): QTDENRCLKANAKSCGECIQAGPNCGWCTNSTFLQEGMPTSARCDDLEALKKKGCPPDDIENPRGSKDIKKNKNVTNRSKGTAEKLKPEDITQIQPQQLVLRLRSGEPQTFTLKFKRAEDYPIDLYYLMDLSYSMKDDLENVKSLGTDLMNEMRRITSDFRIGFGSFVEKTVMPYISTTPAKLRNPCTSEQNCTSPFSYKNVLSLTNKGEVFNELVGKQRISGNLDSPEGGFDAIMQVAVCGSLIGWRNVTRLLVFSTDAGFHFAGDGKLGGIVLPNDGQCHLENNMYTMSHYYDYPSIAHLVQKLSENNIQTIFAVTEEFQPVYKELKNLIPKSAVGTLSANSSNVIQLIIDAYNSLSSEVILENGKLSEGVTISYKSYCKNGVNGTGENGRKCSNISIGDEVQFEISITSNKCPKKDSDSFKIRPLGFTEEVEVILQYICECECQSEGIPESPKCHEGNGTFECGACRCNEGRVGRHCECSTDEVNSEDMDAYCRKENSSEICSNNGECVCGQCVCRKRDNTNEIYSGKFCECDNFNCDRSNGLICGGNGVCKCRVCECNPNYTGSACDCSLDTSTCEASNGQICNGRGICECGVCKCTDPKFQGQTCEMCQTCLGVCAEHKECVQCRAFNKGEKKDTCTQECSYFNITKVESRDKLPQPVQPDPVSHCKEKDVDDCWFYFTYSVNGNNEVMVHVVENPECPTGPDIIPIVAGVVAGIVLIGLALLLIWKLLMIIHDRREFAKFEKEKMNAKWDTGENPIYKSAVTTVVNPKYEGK

adhesion of mature megakaryocytes to hOSTs (day 18) after pre-incubation with 30 µg/mL anti-integrin alpha2 monoclonal antibody P1E6, against unrelated IgG: 30%
Substance: type I collagen (from UniProt P02452 162-1218; P08123 80-1119) (complex)
